Test results as given in article PMC11868117.
pKd: −log10 of the molar value.

Legend:
Assay in all cases: ELONA (direct, immobilized protein)
[1] = molecular target: SARS-CoV-2 Delta VOC spike (S) protein (SARS-CoV-2 (Delta variant)) (UniProt P0DTC2)
[2] = molecular target: SARS-CoV-2 Omicron VOC spike (S) protein (SARS-CoV-2 (Omicron variant)) (UniProt P0DTC2)
[3] = molecular target: SARS-CoV-2 Alpha VOC spike (S) protein (SARS-CoV-2 (Alpha variant)) (UniProt P0DTC2)

Q: How did the pKd [1] turn out when “ATCGAGCATGGCGAGTGTCCTATCCCCCATCAACTCAACCCAACCAGTACGACTCCTCCTCGTCTGAATGACGGCTAACT [Delta Apt (Bio)]” was run?
A: 6.95

Q: How did the pKd [2] turn out when “CTGGCCTCACTGGATACTCTAAGACTATTGGTCAAGTTTGCCTTGTCAAGGCTATTGGTCAAGGCAAGGCTGGCCAACCCATGGGTGGAGTTTAGCCAG [Omicron Apt (Bio)]” was run?
A: 7.49

Q: How did the pKd [3] turn out when “AGTTAGCCGTCATTCAGACGATTTGTCCGTGTTACGATTGGGGAACGTGGATGACATTCTGGACACTCGCCATGCTCGAT [Alpha Apt (Bio)]” was run?
A: 6.71
